“And” between values parts separate entries of the source, which are not always exact repeats. Identical values can stand only once.
T1: His-tagged PH domain of OCRL (1-129) (UniProt Q01968 1-129)
T1 construct: OCRL (OCRL1), PH domain, residues 1-129; also called OCRL PH domain; source: E. coli, purified (protocol similar to that of TMEM55B, no ZnCl2 added)
T1 sequence (looked up): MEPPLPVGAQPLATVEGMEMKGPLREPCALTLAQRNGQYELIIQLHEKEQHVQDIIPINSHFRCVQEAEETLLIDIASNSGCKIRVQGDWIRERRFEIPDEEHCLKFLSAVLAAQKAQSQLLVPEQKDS

B1: TMEM55B (80-166), untagged, wild type (domain or fragment)
chain: not shown
notes: N-terminal peptide left from the pET15b expression vector; TMEM55B, residues 80-166; numbers count on: UniProt Q86T03 isoform 2 (284 residues); also called WT TMEM55B region 80-166; source: E. coli BL21(DE3), purified (Ni-NTA, thrombin, second Ni-NTA, gel filtration)

Molecular target: T2, TMEM55B (80-160) (UniProt Q86T03-2 80-160)
T2 construct: TMEM55B, residues 80-160; numbers count on: UniProt Q86T03 isoform 2; source: E. coli, purified
T2 sequence (Q86T03 73-153): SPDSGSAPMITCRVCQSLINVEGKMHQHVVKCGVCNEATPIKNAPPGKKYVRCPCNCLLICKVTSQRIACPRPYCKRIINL
Experiment: ITC; peptide or OCRL PH domain injected into the cell with TMEM55B_(80-160); ITC200; Tris-HCl, 150mM NaCl, 1mM DTT, pH 7.5; single binding mode
Settings: both partners purified

Row | dH | stoichiometry N | Kd | Binder
1 | -5.3 kcal/mol and -5.9 kcal/mol and -6.7 kcal/mol | 0.69 and 0.86 and 0.68 |  | OCRL-PH domain (as used in ITC) (domain or fragment, UniProt Q01968 1-119, looked up, OCRL, PH domain; residues 1-129 are stated for the His-tagged variant of the pull-down; Probably the construct of m14; source: E. coli, purified (protocol similar to that of TMEM55B, no ZnCl2 added)) MEPPLPVGAQPLATVEGMEMKGPLREPCALTLAQRNGQYELIIQLHEKEQHVQDIIPINSHFRCVQEAEETLLIDIASNSGCKIRVQGDWIRERRFEIPDEEHCLKFLSAVLAAQKAQS
2 | -9 kcal/mol and -9.1 kcal/mol and -8.7 kcal/mol | 0.94 and 1.1 | 20 nM and 33 nM and 12 nM | DDLEQATEALDS (WDR81, residues 657-668; source: synthetic peptide (Genscript)) [WDR81 657-668]
3 | -8.9 kcal/mol and -9.7 kcal/mol and -8.7 kcal/mol | 1 and 0.91 and 0.78 | 2900 nM and 2200 nM and 3100 nM | TAEEATEATEG (JIP4, residues 887-897; source: synthetic peptide (Genscript)) [JIP4 887-897]
4 | -11.4 kcal/mol and -12.1 kcal/mol and -13.6 kcal/mol | 0.87 and 0.95 | 680 nM and 590 nM and 1000 nM | GSGYTEQGQEALQHL (linker after the His6 tag; also called His-tagged RILPL1 peptide; source: synthetic peptide (Genscript); not shown: His6, N-terminal, kept) [His-RILPL1 391-403]
5 | -8.2 kcal/mol and -9.3 kcal/mol | 1.2 and 0.99 and 1.1 | 127 nM and 126 nM and 103 nM | SQSTEEATEATEVPD (JIP3, residues 889-903; source: synthetic peptide (Genscript)) [JIP3 889-903]

Molecular target: B1
Experiment: pull-down; 10μM His-tagged peptide or His-tagged OCRL PH domain as bait on Ni2+-agarose, 10μM untagged TMEM55B as prey; 20 mM Tris pH 8.0, 300 mM NaCl, 20mM imidazole, 10 mM β-mercaptoethanol; Coomassie
Settings: both partners purified

Row | binding result | Binder
6 | binds | GSTAEEATEATEG (linker after the His6 tag; JIP4, residues 887-897; also called His-tagged JIP4 peptide; source: synthetic peptide (Genscript); not shown: His6, N-terminal, kept) [His-JIP4 887-897]
7 | binds | GSDDLEQATEALDS (linker after the His6 tag; WDR81, residues 657-668; also called His-tagged WDR81 peptide; source: synthetic peptide (Genscript); not shown: His6, N-terminal, kept) [His-WDR81 657-668]

Molecular target: T1, His-tagged PH domain of OCRL (1-129)
Experiment: as above
Settings: both partners purified

Row | binding result | Binder
8 | binds | B1

Molecular target: B1
Experiment: SEC-MALS; Superdex75 10/300 GL, 1-1.5 mg/mL, TMEM55B_(80-166) alone or with RILPL1 peptide
Settings: both partners purified

Row | stoichiometry N | Binder
9 | 1 | GYTEQGQEALQHL (also called RL1pep; RILPL1 peptide; source: synthetic peptide (Genscript)) [RILPL1 391-403 peptide]

— publication doi:10.1101/2025.08.19.670962, “Structural basis for binding of RILPL1 to TMEM55B reveals a lysosomal platform for adaptor assembly through a conserved TBM motif” (bioRxiv, 2025)
